Laboratory results: the RNAGym collection of RNA variant scans (doi:10.1073/pnas.2313332121)
Fewer inactive variants are shown than the library holds.

B1: TPR 5TU (parent)
chain: GGAUCUUCUCGAUCUAACAAAAAAGACAAAUCUGCCACAAAGCUUGAGAGCAUCUUCGGAUGCAGAGGCGGCAGCCUUCGGUGGCGCGAUAGCGCCAACGUUCUCAACUAUGACACGCAAAACGCGUGCUCCGUUGAAUGGAGUUUAUCAUG

Variants of: B1
Experiment: polymerase ribozyme fitness, log enrichment relative to wild type (log ratio); higher = more active; in vitro selection for triplet polymerase activity
Outline: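 Genotype fitness is the logarithm of its enrichment divided by wild-type enrichment, using inverse-variance-weighted averages of replicates. That logarithm is base 2. Enrichment was measured by Illumina sequencing of input and output libraries from one triplicate in vitro selection round, with frozen incubation at −7 °C, on PCR-built, transcribed mutant libraries of each subunit of a heterodimeric triplet polymerase ribozyme, retaining genotypes with ≥10 input reads and ≥1 read per output.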

| Variant | polymerase ribozyme fitness (log ratio) |
| --- | --- |
| A91U G128A U139C A150U | ≤ -4.2 |
| U33G U61A | -3.72 |
| U53A C103G | -3.95 |
| G59C G86C C96U A121U | -3.29 |
| U6G A20U A41U U44A U55G G83A G88U A98U A121G U145A | ≤ -4.2 |
| A19C C123G | 0.921 |
| A28U A66U A73G G86U C103G C116U G152U | ≤ -4.2 |
| C51U C96U | -0.419 |
| G59A G86U | -1.84 |
| A29C C63U G65U U144G | ≤ -4.2 |
| C57A C95U C149U | -0.536 |
| G88U C149U | ≤ -4.2 |
| A16U C79G | ≤ -4.2 |
| A119U A137U | -4.12 |
| A24C A49C A52C A64U C69A U82G C108U U130A U139G | ≤ -4.2 |
| U102G U104C U148A A150U | ≤ -4.2 |
| U45A A121G C131G G140U | ≤ -4.2 |
| C51G G58C | -1.42 |
| A40C A47C C93A A137G U146C | -4.13 |
| A37C C57U G86A C95G C99G C131U | ≤ -4.2 |
| G25A G48U U61G C96A A97G C132G | ≤ -4.2 |
| A16U C43G G84C | ≤ -4.2 |
| U55G G65A A97U U130C | -1.27 |
| C5A U45C G58U U82C G84A | -3.97 |

| Variant | polymerase ribozyme fitness (log ratio) |
| --- | --- |
| G46C C54U C95U C116U C118G | -2.25 |
| A17U C18A C35U C36G C105A | ≤ -4.2 |
| A12C A142C | -1.32 |
| U7G G25C A60G C93U C123U | ≤ -4.2 |
| U77A U78C G94U C95G C105U | ≤ -4.2 |
| U82C C85U C114A | -3.22 |
| C93A A142C | -1.78 |
| G81U G84U A119U G143A | -1.61 |
| G11C A47C U55A G81A C87G A120U U144A | ≤ -4.2 |
| A16G C43A C57G G59U G70U G88U C99U A107G | ≤ -4.2 |
| A60C G67C A73G G81A C114A G136C | ≤ -4.2 |
| A60G G70A C108G | ≤ -4.2 |
| U55G C105U G141U U145C U146G | -3.09 |
| A24C U31C U33G U53A U78A G88U U134C | ≤ -4.2 |
| A29U A66U C96U | ≤ -4.2 |
| A16U C57A | -1.96 |
| C85G C114U | -3.49 |
| A21C A30C A41C G59A C95U | ≤ -4.2 |
| G86C C116U | -2.44 |
| A52U U53G U56A G65C C75U C85U U104G U127C U139A | ≤ -4.2 |
| A3G A52U C54U U77G A121G A122G A137G | ≤ -4.2 |
| C38G G133C A147C | -2.55 |
| C14U A47C G84A | -2.49 |
| C5U U45G A119U | -0.808 |

| Variant | polymerase ribozyme fitness (log ratio) |
| --- | --- |
| U4G C38A A47C C85G | -3.7 |
| A47C U53C C57A C72G A73C U78C C79U C96G C129A A150G | ≤ -4.2 |
| C32A A41C C51U G58A C69U C93U C108U | ≤ -4.2 |
| C51U C95U | -1.69 |
| A16C A19U A73G C87A U148G G152U | ≤ -4.2 |
| A17U C38A U53A G81C C95U U104G | -4 |
| A49C A52G C72A | ≤ -4.2 |
| C10A A16U U33A A121U G141C | -4.19 |
| A12G C63U | -0.0387 |
| A21G C54U G140A U145G | ≤ -4.2 |
| C57G C79U | -2.13 |
| C32U C76A G83U G92C C114U C123A | ≤ -4.2 |
| A52C G84A C116G A120U | -1.12 |
| A37C G83U C93G A97G G100U | ≤ -4.2 |
| A60U A89C | -0.611 |
| A16U A52U G74A C87A A119U U148G | ≤ -4.2 |
| C10A A12G A22G U56A C85G | ≤ -4.2 |
| U56G G88U G92U C96U C125A | -3.87 |
| A41G C51U A89C C95A U135C U148A | ≤ -4.2 |
| C35G G50A G58A A66C C75A C87U | ≤ -4.2 |
| G34C C36A A91C C96U C123G G140A | -4.15 |
| A19C A21G C57A G58U C72U C85U C103U U134C | -0.327 |
| A41U G124A | -1.29 |
| C93U A142U | -1.68 |

| Variant | polymerase ribozyme fitness (log ratio) |
| --- | --- |
| A24G U33G C87U U101G G140C | ≤ -4.2 |
| A49U U55G C103A U111C A138G G152A | ≤ -4.2 |
| C10U G42C G83U A97G G124U G133C | ≤ -4.2 |
| A60U C76U G86A G141A | -3.96 |
| C75U G92U C93G | -1.13 |
| A19U G25U C35A G65U A91U A120G G140A A142U | -4.19 |
| A52C U55C G83A U151A G152A | ≤ -4.2 |
| C18A G141C | -0.603 |
| C10A A12G A23C U55A | ≤ -4.2 |
| C35A G94A | -3.56 |
| A20C C32A A52G A91U G94A C99U A147U G152U | -3.97 |
| A30G C54U C76G A91C | ≤ -4.2 |
| A41C G92U A98G C123G G133C U134A G152U | ≤ -4.2 |
| C35U G92A C96A | ≤ -4.2 |
| C57U C85U A89C U127A | -4.18 |
| A16U A19G C57A | -2.39 |
| C36U G94A C125A | -1.63 |
| A19C C54U | -0.474 |
| C18U U53G C54A A91G A110G C114G | ≤ -4.2 |
| U6C U33G U56C G81C C95U | ≤ -4.2 |
| C54U G58A | 0.498 |
| A22G A110G | -3.28 |
| A29G A89U C96U A115C A121C G143U | ≤ -4.2 |
| C14A A24U U90A | ≤ -4.2 |

| Variant | polymerase ribozyme fitness (log ratio) |
| --- | --- |
| G25U A52C U90C C95U U111A U135A U151G | ≤ -4.2 |
| A28U G50A C132U | ≤ -4.2 |
| C32U G80U U102G A113U C125U G126A | ≤ -4.2 |
| G34U A41G G81A G84U C87A C93A A110G | ≤ -4.2 |
| C35U A52C C85U G117U | -2.29 |
| C10G U33G G42C G50U G74C | ≤ -4.2 |
| A19G C93A | -3.43 |
| A19G U82G G124A G140C | -3.62 |
| C8G U55A | -2.91 |
| A39U A49C A137G | ≤ -4.2 |
| U6G G83A | -0.0531 |
| A3U A30G U104C C105A C114G A115G A122G C129A | ≤ -4.2 |
| G83A C99U | -2.05 |
| C95G C96G | -2.17 |
| A52U C54U A97U | -2.56 |
| U6C U7G A49G A66C G74A C96G | ≤ -4.2 |
| A37U A52G C76U C95A | -2.41 |
| A29C A52G U55A C75G A106U A110G A121U U127A | ≤ -4.2 |
| A49G G50A C54A A66G U82A C108U C125A | ≤ -4.2 |
| U15G C51U G86U A89U C114U | ≤ -4.2 |
| G70A G84U C116A | -4.13 |
| A21U G59C G126U | 0.721 |
| U4G U56A A60C C76G A91C C95U A142C | ≤ -4.2 |
| C54A G67A G70C C72G A73C G74A C75G C87G C116G | ≤ -4.2 |

| Variant | polymerase ribozyme fitness (log ratio) |
| --- | --- |
| A28G A41C C96A U145G | ≤ -4.2 |
| C5A A16U A24U C35A U56A C85G U109G U144C | ≤ -4.2 |
| G11C G46A G58A G83A | -3.26 |
| U55A A115U G133U | ≤ -4.2 |
| A28U G50C G83C A110C | ≤ -4.2 |
| G65C A89C G92A U102G C116U A137G | ≤ -4.2 |
| A26U A60U U111G G141U | -3.78 |
| C18U U90G | ≤ -4.2 |
| G58C A64G G65A G71A C95U U101G | ≤ -4.2 |
| C5A G86U A107G G152A | ≤ -4.2 |
| A17G C57U C96U U127C C131A G133U U146C | ≤ -4.2 |
| G84C G92C A106U C149U | ≤ -4.2 |
| C76U G143A | -1.28 |
| C69A C76U A98U C125U | -1.9 |
| C85G C96G | -3.49 |
| C10U A16C A23U G62C A64G G83C U102G C114U U127G | ≤ -4.2 |
| A20G C27G G67C U78G A89U C93G G124A U151G | ≤ -4.2 |
| A24C A30C A41U A66U U82C G86U G94U C116A | ≤ -4.2 |
| C14G A24C A60G G62A G65C C87U U145G | ≤ -4.2 |
| C38A C76A G92U G136A G152U | ≤ -4.2 |
| C5A A41G G58A A60C G84A A106U C131U U146A | -3.76 |
| G34A U145A | -0.571 |
| A3G U44G C57A G59U G68C C87G | ≤ -4.2 |
| U7C C27A C69G G86A G100C | ≤ -4.2 |

| Variant | polymerase ribozyme fitness (log ratio) |
| --- | --- |
| A40U G62U C72G G80C U82C A138U | ≤ -4.2 |
| A41C U90G A113C | ≤ -4.2 |
| A41C G48A | -1.3 |
| C72U G86C C105A C114U G140U | ≤ -4.2 |
| C79A U90G C95G C116A A119C G141U | ≤ -4.2 |
| G84U G92C A121U | -2.94 |
| G81A | -0.305 |
| A30U G68U A73U G140U | ≤ -4.2 |
| G50A U134A | -3.21 |
| A52C G74C C108U A113G U145G | ≤ -4.2 |
| A3U C8A C18U A47C A49U C93U U102G A107G G133U | ≤ -4.2 |
| C69G U77C C87U G140U | ≤ -4.2 |
| U55A C72U G83A | -0.82 |
| A30U A41C G70C C93G | ≤ -4.2 |
| A20U U56A A73G G94A U101A | -2.45 |
| A22G A91U C95U U109C A137U | ≤ -4.2 |
| G48C G143U | -2.25 |
| G80C C95U C99A G133U | ≤ -4.2 |
| U9G C51G G84A G141C | ≤ -4.2 |
| C36A C87U G140C | ≤ -4.2 |
| A47C A73U C118A | -3.14 |
| G86A A89U | -1.96 |
| A41C C54A U82G G94U | -3.5 |
